Sequences and labels used below:
B1: Notch homolog 2 N-terminal-like protein A (Homo sapiens), Q7Z3S9 (parent)
chain: MCVTYHNGTGYCKCPEGFLGEYCQHRDPCEKNRCQNGGTCVAQAMLGKATCRCASGFTGEDCQYSTSHPCFVSRPCLNGGTCHMLSRDTYECTCQVGFTGKECQWTDACLSHPCANGSTCTTVANQFSCKCLTGFTGQKCETDVNECDIPGHCQHGGTCLNLPGSYQCQCLQGFTGQYCDSLYVPCAPSPCVNGGTCRQTGDFTFECNCLPETVRRGTELWERDREVWNGKEHDEN
partner: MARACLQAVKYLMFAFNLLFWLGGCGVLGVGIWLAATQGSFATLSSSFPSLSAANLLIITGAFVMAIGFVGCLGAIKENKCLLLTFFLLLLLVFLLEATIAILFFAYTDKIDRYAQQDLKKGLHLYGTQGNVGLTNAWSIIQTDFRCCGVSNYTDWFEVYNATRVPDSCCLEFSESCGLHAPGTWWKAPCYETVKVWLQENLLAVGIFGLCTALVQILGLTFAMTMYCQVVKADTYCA
B2: Syntenin-2 (Homo sapiens), Q9H190 (parent)
chain: MSSLYPSLEDLKVDQAIQAQVRASPKMPALPVQATAISPPPVLYPNLAELENYMGLSLSSQEVQESLLQIPEGDSTAVSGPGPGQMVAPVTGYSLGVRRAEIKPGVREIHLCKDERGKTGLRLRKVDQGLFVQLVQANTPASLVGLRFGDQLLQIDGRDCAGWSSHKAHQVVKKASGDKIVVVVRDRPFQRTVTMHKDSMGHVGFVIKKGKIVSLVKGSSAARNGLLTNHYVCEVDGQNVIGLKDKKIMEILATAGNVVTLTIIPSVIYEHMVKKLPPVLLHHTMDHSIPDA
B3: A-kinase anchor protein 17A (Homo sapiens), Q02040 (parent)
chain: MAAATIVHDTSEAVELCPAYGLYLKPITKMTISVALPQLKQPGKSISNWEVMERLKGMVQNHQFSTLRISKSTMDFIRFEGEVENKSLVKSFLACLDGKTIKLSGFSDILKVRAAEFKIDFPTRHDWDSFFRDAKDMNETLPGERPDTIHLEGLPCKWFALKESGSEKPSEDVLVKVFEKFGEIRNVDIPMLDPYREEMTGRNFHTFSFGGHLNFEAYVQYREYMGFIQAMSALRGMKLMYKGEDGKAVACNIKVSFDSTKHLSDASIKKRQLERQKLQELEQQREEQKRREKEAEERQRAEERKQKELEELERERKREEKLRKREQKQRDRELRRNQKKLEKLQAEEQKQLQEKIKLEERKLLLAQRNLQSIRLIAELLSRAKAVKLREQEQKEEKLRLQQQEERRRLQEAELRRVEEEKERALGLQRKERELRERLLSILLSKKPDDSHTHDELGVAHADLLQPVLDILQTVSSGCVSATTLHPLGGQPPAGAPKESPAHPEADGAPKSVNGSVAEEAPCKEVQSSCRVVPEDGSPEKRCPGGVLSCIPDNNQQPKGIPACEQNVSRKDTRSEQDKCNREPSKGRGRATGDGLADRHKRERSRARRASSREDGRPRKERRPHKKHAYKDDSPRRRSTSPDHTRSRRSHSKDRHRRERSRERRGSASRKHSRHRRRSERSRSRSPSRHRSTWNR
B4: ATP synthase mitochondrial F1 complex assembly factor 2 (Homo sapiens), Q8N5M1 (parent)
chain: MWRSCLRLRDGGRRLLNRPAGGPSASMSPGPTIPSPARAYAPPTERKRFYQNVSITQGEGGFEINLDHRKLKTPQAKLFTVPSEALAIAVATEWDSQQDTIKYYTMHLTTLCNTSLDNPTQRNKDQLIRAAVKFLDTDTICYRVEEPETLVELQRNEWDPIIEWAEKRYGVEISSSTSIMGPSIPAKTREVLVSHLASYNTWALQGIEFVAAQLKSMVLTLGLIDLRLTVEQAVLLSRLEEEYQIQKWGNIEWAHDYELQELRARTAAGTLFIHLCSESTTVKHKLLKE
partner: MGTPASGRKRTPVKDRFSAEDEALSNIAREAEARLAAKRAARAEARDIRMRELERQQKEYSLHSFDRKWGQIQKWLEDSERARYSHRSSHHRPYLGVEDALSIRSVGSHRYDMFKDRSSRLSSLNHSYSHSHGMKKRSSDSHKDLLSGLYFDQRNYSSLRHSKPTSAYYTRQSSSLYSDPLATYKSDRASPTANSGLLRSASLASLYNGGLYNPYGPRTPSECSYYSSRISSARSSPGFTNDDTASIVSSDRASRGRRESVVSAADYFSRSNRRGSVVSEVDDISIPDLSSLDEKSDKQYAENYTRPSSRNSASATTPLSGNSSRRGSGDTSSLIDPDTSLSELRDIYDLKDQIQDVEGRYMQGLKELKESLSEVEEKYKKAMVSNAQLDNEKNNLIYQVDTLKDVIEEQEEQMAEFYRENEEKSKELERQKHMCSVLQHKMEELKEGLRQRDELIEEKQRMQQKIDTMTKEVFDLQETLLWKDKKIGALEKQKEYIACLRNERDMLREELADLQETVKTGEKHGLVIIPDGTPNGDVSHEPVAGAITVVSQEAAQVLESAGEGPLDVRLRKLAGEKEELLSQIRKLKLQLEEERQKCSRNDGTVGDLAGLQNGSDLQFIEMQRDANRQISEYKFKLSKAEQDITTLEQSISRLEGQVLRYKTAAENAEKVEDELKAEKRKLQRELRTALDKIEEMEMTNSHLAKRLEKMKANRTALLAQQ
B5: BICD family-like cargo adapter 2 (Homo sapiens), A1A5D9 (parent)
chain: MSSPDGPSFPSGPLSGGASPSGDEGFFPFVLERRDSFLGGGPGPEEPEDLALQLQQKEKDLLLAAELGKMLLERNEELRRQLETLSAQHLEREERLQQENHELRRGLAARGAEWEARAVELEGDVEALRAQLGEQRSEQQDSGRERARALSELSEQNLRLSQQLAQASQTEQELQRELDALRGQCQAQALAGAELRTRLESLQGENQMLQSRRQDLEAQIRGLREEVEKGEGRLQTTHEELLLLRRERREHSLELERARSEAGEALSALRRLQRRVSELEEESRLQDADVSAASLQSELAHSLDDGDQGQGADAPGDTPTTRSPKTRKASSPQPSPPEEILEPPKKRTSLSPAEILEEKEVEVAKLQDEISLQQAELQSLREELQRQKELRAQEDPGEALHSALSDRDEAVNKALELSLQLNRVSLERDSLSRELLRAIRQKVALTQELEAWQDDMQVVIGQQLRSQRQKELSASASSSTPRRAAPRFSLRLGPGPAGGFLSNLFRRT
B6: Oxidative stress-induced growth inhibitor 1 (Homo sapiens), Q9UJX0 (parent)
chain: MSSSRKDHLGASSSEPLPVIIVGNGPSGICLSYLLSGYTPYTKPDAIHPHPLLQRKLTEAPGVSILDQDLDYLSEGLEGRSQSPVALLFDALLRPDTDFGGNMKSVLTWKHRKEHAIPHVVLGRNLPGGAWHSIEGSMVILSQGQWMGLPDLEVKDWMQKKRRGLRNSRATAGDIAHYYRDYVVKKGLGHNFVSGAVVTAVEWGTPDPSSCGAQDSSPLFQVSGFLTRNQAQQPFSLWARNVVLATGTFDSPARLGIPGEALPFIHHELSALEAATRVGAVTPASDPVLIIGAGLSAADAVLYARHYNIPVIHAFRRAVDDPGLVFNQLPKMLYPEYHKVHQMMREQSILSPSPYEGYRSLPRHQLLCFKEDCQAVFQDLEGVEKVFGVSLVLVLIGSHPDLSFLPGAGADFAVDPDQPLSAKRNPIDVDPFTYQSTRQEGLYAMGPLAGDNFVRFVQGGALAVASSLLRKETRKPP
B7: Keratin, type I cytoskeletal 40 (Homo sapiens), Q6A162 (parent)
chain: MTSDCSSTHCSPESCGTASGCAPASSCSVETACLPGTCATSRCQTPSFLSRSRGLTGCLLPCYFTGSCNSPCLVGNCAWCEDGVFTSNEKETMQFLNDRLASYLEKVRSLEETNAELESRIQEQCEQDIPMVCPDYQRYFNTIEDLQQKILCTKAENSRLAVQLDNCKLATDDFKSKYESELSLRQLLEADISSLHGILEELTLCKSDLEAHVESLKEDLLCLKKNHEEEVNLLREQLGDRLSVELDTAPTLDLNRVLDEMRCQCETVLANNRREAEEWLAVQTEELNQQQLSSAEQLQGCQMEILELKRTASALEIELQAQQSLTESLECTVAETEAQYSSQLAQIQCLIDNLENQLAEIRCDLERQNQEYQVLLDVKARLEGEINTYWGLLDSEDSRLSCSPCSTTCTSSNTCEPCSAYVICTVENCCL

The variants in the first assay derive from B1. The settings on record: with tsn4_human TSPAN4, O14817.
On to R74Q, for which the “effect of a mutation on the interaction” value was “with no effect”.

Turning to A115T, the “effect of a mutation on the interaction” value is “with no effect”.

The variants in another assay derive from B2. Conditions: with zch10_human ZCCHC10, Q8TBK6.
zch10_human ZCCHC10, Q8TBK6, sequence (Q8TBK6 whole entry): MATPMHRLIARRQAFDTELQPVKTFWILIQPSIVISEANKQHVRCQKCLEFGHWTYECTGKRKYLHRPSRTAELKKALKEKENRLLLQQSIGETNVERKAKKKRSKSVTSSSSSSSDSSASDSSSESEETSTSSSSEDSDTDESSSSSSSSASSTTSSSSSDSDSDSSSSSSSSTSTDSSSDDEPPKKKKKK
Turning to G242R, the “effect of a mutation on the interaction” value is given as “disrupting interaction strength”.

In the case of G225R, the “effect of a mutation on the interaction” value is “disrupting interaction strength”.

As for V182M, the “effect of a mutation on the interaction” value is “with no effect”.

Variants of B2 are the subject of another assay. Conditions: with t23o_human TDO2, P48775.
t23o_human TDO2, P48775, sequence (P48775 whole entry, looked up): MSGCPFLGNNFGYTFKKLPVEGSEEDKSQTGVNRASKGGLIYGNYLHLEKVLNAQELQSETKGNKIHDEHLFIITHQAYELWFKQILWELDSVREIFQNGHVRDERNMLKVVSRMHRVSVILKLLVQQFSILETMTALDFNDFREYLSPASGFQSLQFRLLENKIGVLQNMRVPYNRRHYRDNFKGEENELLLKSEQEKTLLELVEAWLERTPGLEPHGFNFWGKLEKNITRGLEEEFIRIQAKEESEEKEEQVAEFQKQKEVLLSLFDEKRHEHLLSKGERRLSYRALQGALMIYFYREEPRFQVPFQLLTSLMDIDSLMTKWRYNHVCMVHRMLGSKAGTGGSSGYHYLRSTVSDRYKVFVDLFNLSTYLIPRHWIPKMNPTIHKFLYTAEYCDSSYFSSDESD
In the case of G242R, the “effect of a mutation on the interaction” value is reported as “disrupting interaction strength”.

Regarding G225R, the “effect of a mutation on the interaction” value was “disrupting interaction strength”.

Turning to V182M, the “effect of a mutation on the interaction” value is “with no effect”.

In the next assay the parent is B2. The settings on record: with lyar_human LYAR.
With G242R, the “effect of a mutation on the interaction” value is on record as “disrupting interaction strength”.

Consider G225R, for which the “effect of a mutation on the interaction” value is recorded as “disrupting interaction strength”.

Take V182M: the “effect of a mutation on the interaction” value is “with no effect”.

Variants of B2 are the subject of the next assay. The settings on record: with ytdc1_human YTHDC1, Q96MU7.
G242R: the “effect of a mutation on the interaction” value was “disrupting interaction strength”.

G225R: the “effect of a mutation on the interaction” value is “disrupting interaction strength”.

For the variant V182M, the “effect of a mutation on the interaction” value was “disrupting interaction strength”.

Variants of B2 are the subject of a further assay. Conditions: with FAM133A.
As for G242R, the “effect of a mutation on the interaction” value is “disrupting interaction strength”.

For G225R, the “effect of a mutation on the interaction” value is given as “disrupting interaction strength”.

As for V182M, the “effect of a mutation on the interaction” value is listed as “with no effect”.

The next assay covers variants of B3. Conditions: with cep70_human CEP70, Q8NHQ1.
R675C: the “effect of a mutation on the interaction” value was “with no effect”.

Regarding R298K, the “effect of a mutation on the interaction” value is on record as “with no effect”.

Variants of B4 are the subject of a further assay. The settings on record: with lrrf2_human LRRFIP2, Q9Y608.
As to E241G, the “effect of a mutation on the interaction” value is “with no effect”.

The variants in another assay derive from B5. The settings on record: with klc3_human KLC3, Q6P597.
For E58K, the “effect of a mutation on the interaction” value is reported as “with no effect”.

In a further assay the parent is B6. Conditions: with htf4_human TCF12, Q99081.
htf4_human TCF12, Q99081, sequence (Q99081 whole entry): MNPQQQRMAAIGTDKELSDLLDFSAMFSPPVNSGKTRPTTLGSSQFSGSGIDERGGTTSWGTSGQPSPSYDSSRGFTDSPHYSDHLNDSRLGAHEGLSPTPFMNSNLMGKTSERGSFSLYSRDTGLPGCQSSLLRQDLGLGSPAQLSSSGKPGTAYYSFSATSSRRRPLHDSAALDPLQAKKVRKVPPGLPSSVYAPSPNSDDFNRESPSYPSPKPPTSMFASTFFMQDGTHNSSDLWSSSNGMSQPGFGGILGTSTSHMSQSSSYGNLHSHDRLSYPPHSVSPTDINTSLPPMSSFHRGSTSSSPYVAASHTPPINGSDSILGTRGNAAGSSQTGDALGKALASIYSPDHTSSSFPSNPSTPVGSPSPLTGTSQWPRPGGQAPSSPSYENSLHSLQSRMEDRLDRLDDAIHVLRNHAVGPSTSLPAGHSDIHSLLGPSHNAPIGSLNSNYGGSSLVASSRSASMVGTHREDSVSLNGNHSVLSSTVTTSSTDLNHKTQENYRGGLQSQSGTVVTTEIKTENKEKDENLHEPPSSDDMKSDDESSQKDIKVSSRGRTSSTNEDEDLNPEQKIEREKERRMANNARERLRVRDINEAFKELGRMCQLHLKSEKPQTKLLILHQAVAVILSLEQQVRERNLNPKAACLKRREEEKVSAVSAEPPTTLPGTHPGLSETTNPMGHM
For the variant S236L, the “effect of a mutation on the interaction” value was “disrupting interaction strength”.

As for D320N, the “effect of a mutation on the interaction” value is “with no effect”.

In another assay the parent is B6. Conditions: with itf2_human TCF4, P15884.
itf2_human TCF4, P15884, sequence (P15884 whole entry): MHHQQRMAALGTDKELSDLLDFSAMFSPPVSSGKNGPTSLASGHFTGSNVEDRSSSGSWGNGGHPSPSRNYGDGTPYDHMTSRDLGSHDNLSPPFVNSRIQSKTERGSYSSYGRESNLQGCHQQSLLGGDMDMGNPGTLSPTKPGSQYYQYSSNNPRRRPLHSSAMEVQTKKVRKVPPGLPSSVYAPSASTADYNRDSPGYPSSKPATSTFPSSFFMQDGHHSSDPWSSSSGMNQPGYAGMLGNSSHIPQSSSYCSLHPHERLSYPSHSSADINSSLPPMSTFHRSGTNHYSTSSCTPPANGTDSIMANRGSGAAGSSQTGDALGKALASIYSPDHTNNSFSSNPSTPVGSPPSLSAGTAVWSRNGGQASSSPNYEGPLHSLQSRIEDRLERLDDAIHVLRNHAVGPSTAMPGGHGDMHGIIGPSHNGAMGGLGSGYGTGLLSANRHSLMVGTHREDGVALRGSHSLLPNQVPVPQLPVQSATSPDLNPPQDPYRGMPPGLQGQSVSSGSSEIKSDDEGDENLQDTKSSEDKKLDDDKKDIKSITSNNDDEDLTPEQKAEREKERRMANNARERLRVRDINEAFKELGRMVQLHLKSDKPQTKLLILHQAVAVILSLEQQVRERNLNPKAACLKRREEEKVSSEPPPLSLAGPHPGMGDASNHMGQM
S236L: the “effect of a mutation on the interaction” value is listed as “with no effect”.

For D320N, the “effect of a mutation on the interaction” value is “with no effect”.

Variants of B6 are the subject of the next assay. The settings on record: with ikzf3_human IKZF3, Q9UKT9.
ikzf3_human IKZF3, Q9UKT9, sequence (Q9UKT9 whole entry): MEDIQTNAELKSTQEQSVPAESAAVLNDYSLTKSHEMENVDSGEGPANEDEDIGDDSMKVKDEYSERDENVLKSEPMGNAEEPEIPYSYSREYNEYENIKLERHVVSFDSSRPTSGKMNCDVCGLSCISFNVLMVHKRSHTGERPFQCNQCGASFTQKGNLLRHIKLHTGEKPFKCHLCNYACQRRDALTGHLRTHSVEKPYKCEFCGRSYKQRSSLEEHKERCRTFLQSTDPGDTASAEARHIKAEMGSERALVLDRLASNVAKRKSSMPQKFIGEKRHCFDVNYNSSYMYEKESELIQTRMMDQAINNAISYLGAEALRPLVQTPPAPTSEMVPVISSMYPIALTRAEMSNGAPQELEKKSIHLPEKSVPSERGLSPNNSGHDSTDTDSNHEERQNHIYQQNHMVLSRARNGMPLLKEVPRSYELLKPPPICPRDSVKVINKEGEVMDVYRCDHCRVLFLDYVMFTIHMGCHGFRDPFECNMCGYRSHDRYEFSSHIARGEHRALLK
For the variant S236L, the “effect of a mutation on the interaction” value is “disrupting interaction strength”.

D320N: the “effect of a mutation on the interaction” value is reported as “with no effect”.

The next assay covers variants of B7. Conditions: with wt1_human WT1, P19544.
wt1_human WT1, P19544, sequence (P19544 whole entry): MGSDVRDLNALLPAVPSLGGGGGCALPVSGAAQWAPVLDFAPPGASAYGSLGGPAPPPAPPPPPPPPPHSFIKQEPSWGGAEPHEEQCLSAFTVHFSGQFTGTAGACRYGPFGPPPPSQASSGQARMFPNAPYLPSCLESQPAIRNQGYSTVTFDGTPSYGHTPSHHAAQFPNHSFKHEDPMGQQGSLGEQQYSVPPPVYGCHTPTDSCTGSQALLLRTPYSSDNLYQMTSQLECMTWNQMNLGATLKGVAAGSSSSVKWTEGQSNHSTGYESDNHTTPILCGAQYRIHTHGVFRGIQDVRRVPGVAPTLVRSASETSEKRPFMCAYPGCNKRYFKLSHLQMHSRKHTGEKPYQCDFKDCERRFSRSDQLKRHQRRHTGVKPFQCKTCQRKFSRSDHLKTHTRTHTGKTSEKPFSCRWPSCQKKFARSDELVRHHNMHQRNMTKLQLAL
Consider C265Y, for which the “effect of a mutation on the interaction” value is reported as “with no effect”.

Consider R235H, for which the “effect of a mutation on the interaction” value is on record as “with no effect”.

Regarding S406L, the “effect of a mutation on the interaction” value is given as “with no effect”.

On to E286D, for which the “effect of a mutation on the interaction” value is on record as “with no effect”.

For M303T, the “effect of a mutation on the interaction” value is “with no effect”.

The variants in a further assay derive from B7. Conditions: with k2c4_human KRT4, P19013.
k2c4_human KRT4, P19013, sequence (P19013 whole entry): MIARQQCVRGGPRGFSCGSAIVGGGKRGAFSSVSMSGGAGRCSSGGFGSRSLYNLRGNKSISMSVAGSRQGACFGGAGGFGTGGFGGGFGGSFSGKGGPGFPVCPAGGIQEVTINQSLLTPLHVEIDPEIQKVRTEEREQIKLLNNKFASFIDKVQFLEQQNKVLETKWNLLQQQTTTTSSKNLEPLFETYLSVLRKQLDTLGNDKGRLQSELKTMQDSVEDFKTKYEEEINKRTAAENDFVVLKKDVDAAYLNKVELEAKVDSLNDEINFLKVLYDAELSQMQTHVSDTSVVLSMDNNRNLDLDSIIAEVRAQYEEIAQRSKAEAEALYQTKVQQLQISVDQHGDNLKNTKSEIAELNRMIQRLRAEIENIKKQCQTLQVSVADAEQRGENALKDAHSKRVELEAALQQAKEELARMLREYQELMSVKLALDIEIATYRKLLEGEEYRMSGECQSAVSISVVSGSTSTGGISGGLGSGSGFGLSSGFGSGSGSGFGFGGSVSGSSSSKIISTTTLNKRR
C265Y: the “effect of a mutation on the interaction” value is on record as “with no effect”.

Consider R235H, for which the “effect of a mutation on the interaction” value was “with no effect”.

With S406L, the “effect of a mutation on the interaction” value is listed as “with no effect”.

Regarding E286D, the “effect of a mutation on the interaction” value was “with no effect”.

Regarding M303T, the “effect of a mutation on the interaction” value is “with no effect”.

A further assay covers variants of B7. The settings on record: with mta1_human MTA1, Q13330.
mta1_human MTA1, Q13330, sequence (Q13330 whole entry): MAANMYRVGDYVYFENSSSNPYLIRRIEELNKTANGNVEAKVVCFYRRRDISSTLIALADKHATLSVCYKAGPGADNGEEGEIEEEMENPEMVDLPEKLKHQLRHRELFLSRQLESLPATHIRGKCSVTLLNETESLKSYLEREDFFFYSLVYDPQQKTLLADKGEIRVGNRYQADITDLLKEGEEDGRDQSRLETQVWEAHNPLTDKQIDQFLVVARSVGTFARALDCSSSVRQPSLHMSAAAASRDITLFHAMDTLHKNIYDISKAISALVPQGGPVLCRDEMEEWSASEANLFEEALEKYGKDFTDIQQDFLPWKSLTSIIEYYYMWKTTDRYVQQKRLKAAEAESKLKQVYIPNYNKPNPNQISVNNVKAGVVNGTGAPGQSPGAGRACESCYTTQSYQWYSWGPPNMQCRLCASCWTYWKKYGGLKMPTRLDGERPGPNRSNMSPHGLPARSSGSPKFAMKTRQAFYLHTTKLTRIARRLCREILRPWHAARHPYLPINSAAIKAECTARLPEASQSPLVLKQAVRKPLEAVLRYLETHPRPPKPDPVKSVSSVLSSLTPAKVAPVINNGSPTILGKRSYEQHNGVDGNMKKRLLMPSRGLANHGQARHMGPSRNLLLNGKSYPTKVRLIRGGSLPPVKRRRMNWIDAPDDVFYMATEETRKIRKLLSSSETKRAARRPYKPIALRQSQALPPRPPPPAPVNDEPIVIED
Consider C265Y, for which the “effect of a mutation on the interaction” value was “with no effect”.

Consider R235H, for which the “effect of a mutation on the interaction” value is “with no effect”.

For the variant S406L, the “effect of a mutation on the interaction” value was “with no effect”.

In the case of E286D, the “effect of a mutation on the interaction” value is “with no effect”.

Consider M303T, for which the “effect of a mutation on the interaction” value is recorded as “with no effect”.

The variants in the next assay derive from B7. Conditions: with prs8_human PSMC5, P62195.
prs8_human PSMC5, P62195, sequence (P62195 whole entry): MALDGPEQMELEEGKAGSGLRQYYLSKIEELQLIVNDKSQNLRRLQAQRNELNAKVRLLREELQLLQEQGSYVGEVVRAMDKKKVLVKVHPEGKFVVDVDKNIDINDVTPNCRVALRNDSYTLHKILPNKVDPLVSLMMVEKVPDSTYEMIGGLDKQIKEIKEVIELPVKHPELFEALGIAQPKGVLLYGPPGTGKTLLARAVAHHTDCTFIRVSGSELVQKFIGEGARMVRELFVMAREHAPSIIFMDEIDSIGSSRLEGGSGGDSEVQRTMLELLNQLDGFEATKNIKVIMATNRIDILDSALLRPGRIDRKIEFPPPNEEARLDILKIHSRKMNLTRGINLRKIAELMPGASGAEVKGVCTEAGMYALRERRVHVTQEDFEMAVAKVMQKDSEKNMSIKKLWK
For C265Y, the “effect of a mutation on the interaction” value is recorded as “with no effect”.

As for R235H, the “effect of a mutation on the interaction” value is on record as “with no effect”.

With S406L, the “effect of a mutation on the interaction” value is recorded as “with no effect”.

Regarding E286D, the “effect of a mutation on the interaction” value was “with no effect”.

As for M303T, the “effect of a mutation on the interaction” value is recorded as “with no effect”.

A further assay covers variants of B7. The settings on record: with snai1_human SNAI1, O95863.
snai1_human SNAI1, O95863, sequence (O95863 whole entry): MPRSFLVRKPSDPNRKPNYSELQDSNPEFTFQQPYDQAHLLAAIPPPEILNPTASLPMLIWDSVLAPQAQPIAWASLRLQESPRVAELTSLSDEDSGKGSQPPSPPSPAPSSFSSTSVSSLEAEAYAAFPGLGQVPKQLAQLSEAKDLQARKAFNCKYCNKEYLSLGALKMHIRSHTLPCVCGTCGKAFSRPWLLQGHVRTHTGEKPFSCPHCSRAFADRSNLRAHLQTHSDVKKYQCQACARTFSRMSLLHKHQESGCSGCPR
For C265Y, the “effect of a mutation on the interaction” value was “with no effect”.

Regarding R235H, the “effect of a mutation on the interaction” value is reported as “with no effect”.

For S406L, the “effect of a mutation on the interaction” value was “with no effect”.

With E286D, the “effect of a mutation on the interaction” value is given as “with no effect”.

For M303T, the “effect of a mutation on the interaction” value is recorded as “with no effect”.

Source of the values: IntAct's records for PubMed 31515488.
